In US20030220239A1 (published 2003):

Tests used:
[1] = biological target: HLA-A2.1 (HLA-A*0201) on T2 cells (human); experiment: T2 cell HLA-A2 stabilisation, flow cytometry
[2] = biological target: HLA-A2.1 (HLA-A*0201) on T2 cells (human); experiment: T2 cell HLA-A2.1 stabilisation, flow cytometry
Description: Peptide was mixed with the cells by repipeting before distributing to the plate (alternatively peptide can be added to individual wells), and the plate was rocked gently for 2 minutes. Incubation was in a 5% CO₂ incubator at 37° C. The next day the unbound peptide was removed by washing twice with serum free RPMI medium and a saturating amount of anti-class I HLA monoclonal antibody, fluorescein isothiocyanate (FITC)-conjugated anti-HLA A2, A28 (One Lambda, Canoga Park, Calif.) was added. After incubation for 30 minutes at 4° C., cells were washed 3 times with PBS supplemented with 0.5% BSA, 0.05% (w/v) sodium azide, pH 7.4-7.6 (staining buffer). (Alternatively W6/32 (Sigma) can be used as the anti-class I HLA monoclonal antibody the cells washed with staining buffer and then incubated with fluorescein isothiocyanate (FITC)-conjugated goat F(ab′) antimouse-IgG (Sigma) for 30 min at 4° C. and washed 3 times as before.) The cells were resuspended in 0.5 ml staining buffer. […] If flow cytometry is not to be performed immediately the cells can be fixed by adding a quarter volume of 2% paraformaldehyde and storing in the dark at 4° C.

[3] = biological target: HLA-A2.1 (HLA-A*0201) on T2 cells (human); experiment: T2 cell HLA-A*0201 stabilisation, flow cytometry

Binder	binding result [1]	also measured
FLPWHRLFL (also called Tyr 207-215) [tyrosinase207-215, FLPWHRLFL]	binds	–
LPWHRLFLL (also called Tyr 208-216) [tyrosinase208-216, LPWHRLFLL]	binds	–
KASEKIFYV [SSX-2 41-49, KASEKIFYV]	–	binding result [2]: binds
MMNDQLMFL [PSMA663-671 (SEQ ID NO. 66)]	–	binding result [3]: binds
